T1: Recombinant human LAG-3 ECD-His6 (human, UniProt P18627 23-433)
T1 construct: also called LAG-3-His; recombinant human LAG-3-His
T1 sequence: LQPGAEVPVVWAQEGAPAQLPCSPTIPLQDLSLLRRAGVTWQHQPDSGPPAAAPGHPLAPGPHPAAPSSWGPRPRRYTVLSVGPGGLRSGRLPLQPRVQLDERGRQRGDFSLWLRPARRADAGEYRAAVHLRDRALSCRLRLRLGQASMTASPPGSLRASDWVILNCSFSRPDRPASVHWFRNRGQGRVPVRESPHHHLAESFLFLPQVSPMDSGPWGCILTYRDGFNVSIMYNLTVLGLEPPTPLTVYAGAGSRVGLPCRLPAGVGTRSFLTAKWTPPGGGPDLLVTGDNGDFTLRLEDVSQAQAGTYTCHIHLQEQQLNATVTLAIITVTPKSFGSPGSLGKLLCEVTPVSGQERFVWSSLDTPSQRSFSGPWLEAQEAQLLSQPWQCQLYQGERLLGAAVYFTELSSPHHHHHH

T2: Fc-tagged recombinant soluble LAG-3 (IMP321) (human, UniProt P18627 23-434)
T2 construct: also called LAG3-Ig molecule IMP321; recombinant sLAG-3; not shown: Fc / Ig part
T2 sequence (looked up): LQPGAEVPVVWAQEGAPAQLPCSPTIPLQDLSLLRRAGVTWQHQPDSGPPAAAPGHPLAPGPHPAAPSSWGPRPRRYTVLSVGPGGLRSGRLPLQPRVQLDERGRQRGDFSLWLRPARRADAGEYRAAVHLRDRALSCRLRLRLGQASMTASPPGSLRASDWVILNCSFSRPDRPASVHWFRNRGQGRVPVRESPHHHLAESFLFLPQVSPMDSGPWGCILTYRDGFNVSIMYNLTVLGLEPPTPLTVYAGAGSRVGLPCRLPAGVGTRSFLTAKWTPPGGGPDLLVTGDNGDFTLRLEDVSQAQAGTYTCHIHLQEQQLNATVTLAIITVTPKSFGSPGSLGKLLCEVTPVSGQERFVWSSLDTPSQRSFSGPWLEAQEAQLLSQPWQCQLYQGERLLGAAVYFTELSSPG


What was measured:
[1] = target: T1, Recombinant human LAG-3 ECD-His6; experiment: SPR Biacore T100, Anova comparison of KD
Description: (§1) Wild type fucosylated and afucosylated antibodies were compared for their ability to bind to recombinant human LAG-3 ECD with a C-terminal His6 (SEQ ID NO:51) using the Biacore™ T100 (GE Healthcare™). Protein A was immobilised on a CM5 chip by primary amine coupling. This surface was then used to capture the humanised antibodies. Recombinant human LAG-3 ECD-His6 was then passed over the captured antibodies at 32, 8, 2, 0.5 and 0.125 nM and regeneration was carried out using 50 mM NaOH. The binding curves were double referenced with buffer injection (i.e. 0 nM) and the data was fitted to the T100 analysis software using the 1:1 model. The run was carried out at 25° C., using HBS-EP as the running buffer.
(§2) In order to investigate the statistical significance of this kinetic data, this experiment was repeated 3 times with the same batch of the four antibodies and the chimeric control. KD, ka and kd parameters were each log (base 10) transformed prior to separate statistical analyses. For each parameter, a mixed model analysis of variance CAnova′) was performed on transformed data, including terms for Run (random block effect) and Antibody.
(§3) From the Anova, geometric means were predicted for each antibody, along with statistically plausible ranges (95% confidence intervals) for each mean. Planned comparisons of antibodies were performed within the Anova. […]

[2] = target: T1, Recombinant human LAG-3 ECD-His6; experiment: SPR Biacore T100, Anova comparison of kd
Description: as §1, §2, §3

[3] = target: T3, recombinant soluble human FcγRIIIa F158 (human, UniProt P08637 17-208); experiment: SPR ProteOn XPR36, His-tagged receptor captured on anti-poly-histidine IgG, equilibrium model
T3 construct: also called FcγRIIIa phenylalanine F158; CD16
Description: (§4) A goat anti-poly-histidine IgG was immobilised on a GLM biosensor chip by primary amine coupling. This surface was used as a capture surface for the poly-histidine tagged human Fc gamma receptors. […] The goat anti-poly-histidine IgG surface was regenerated with 100 mM phosphoric acid between interactions. The run was carried out on the ProteOn XPR36 Protein Array Interaction System at 25° C. and using HBS-EP as running buffer. Data was analysed for each receptor separately, setting a global R-max and using the Equilibrium Model inherent to the ProteOn's analysis software. Control molecules were run at the beginning and the end of the set of samples to be tested to ensure comparability of results. Data was compared from two experiments and hybrid control antibodies used as controls between experiments.

[4] = target: T4, recombinant soluble human FcγRIIIa V158 (human, UniProt P08637 17-208); experiment: as above
T4 construct: also called FcγRIIIa valine V158; CD16
Description: as §4

[5] = target: T2, Fc-tagged recombinant soluble LAG-3 …; experiment: SPR Biacore 3000, off-rate comparison with IMP731, IMP321 analyte at 64 nM
Description: The binding kinetics of the purified antibodies for a sLAG-3 molecule were assessed by SPR using a Biacore™ 3000. A goat anti-human kappa antibody (Southern Biotech, Catalogue No. 2060-01) was immobilised on a CM5 chip by primary amine coupling. Humanised anti-LAG3 antibodies were captured on this surface and the LAG3-Ig molecule IMP321 (Chrystelle Brignone, Caroline Grygar, Manon Marcu, Knut Schakel, Frederic Triebel, The Journal of Immunology, 2007, 179: 4202-4211) used as the analyte at 64 nM with a buffer injection (i.e. 0 nM) used to double reference the binding curves. Regeneration was with 10 mM Glycine, pH1.5. The run was carried out on the Biacore™ 3000, using HBS-EP as running buffer and at 25° C. Sensorgrams were normalised for binding at maximal association and off-rates compared against IMP731 by visual inspection of the sensorgram profiles.

T4 sequence (P08637 17-208 F176V limits assumed): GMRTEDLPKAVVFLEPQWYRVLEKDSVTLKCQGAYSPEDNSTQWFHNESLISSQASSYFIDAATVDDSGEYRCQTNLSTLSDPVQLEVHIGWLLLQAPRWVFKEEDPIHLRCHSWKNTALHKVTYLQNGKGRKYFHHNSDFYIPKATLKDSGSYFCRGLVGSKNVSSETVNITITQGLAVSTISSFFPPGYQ
T3 sequence (P08637 17-208 limits assumed): as the sequence (P08637 17-208 F176V limits assumed) above, with V160F counted along it

Row | KD ratio against H5L7 [1] [ratio] | kd ratio against H5L7 [2] [ratio] | fold improvement in affinity against H5L7 [3] [fold] | fold improvement in affinity against H5L7 [4] [fold] | Rank order of off-rates [5] | KD ratio against IMP731 [1] [ratio] | kd ratio against IMP731 [2] [ratio] | Binder
1 | 1.05 | 1.12 | ~10 | ~10 |  |  |  | H5L7BW (antibody, human IgG1, kappa, afucosylated: no fucose on the core carbohydrate structure attached to Asn297, Same plasmids as H5L7, expressed in the BioWa POTELLIGENT (FUT8 knock-out CHO) cell line; also called afucosylated antibody H5L7BW; afucosylated H5L7) heavy: not shown light: DIQMTQSPSSLSASVGDRVTITCKSSQSLLNPSNQKNYLAWYQQKPGKAPKLLVYFASTRDSGVPSRFSGSGSGTDFTLTISSLQPEDFATYYCLQHFGTPPTFGQGTKLEIKRTVAAPSVFIFPPSDEQLKSGTASVVCLLNNFYPREAKVQWKVDNALQSGNSQESVTEQDSKDSTYSLSSTLTLSKADYEKHKVYACEVTHQGLSSPVTKSFNRGEC
2 |  |  |  |  | 1 | 0.0774 | 0.155 | H5L7 (antibody, human IgG1, kappa, Humanised IgG1/kappa of A9H12 (IMP731); also called fucosylated H5L7; non-ADCC enhanced variant H5L7) heavy: not shown light: DIQMTQSPSSLSASVGDRVTITCKSSQSLLNPSNQKNYLAWYQQKPGKAPKLLVYFASTRDSGVPSRFSGSGSGTDFTLTISSLQPEDFATYYCLQHFGTPPTFGQGTKLEIKRTVAAPSVFIFPPSDEQLKSGTASVVCLLNNFYPREAKVQWKVDNALQSGNSQESVTEQDSKDSTYSLSSTLTLSKADYEKHKVYACEVTHQGLSSPVTKSFNRGEC

— patent publication US20160017037A1 (GlaxoSmithKline, published 2016)
